In patent US9809653B2, “Anti-LAMP1 antibodies and antibody drug conjugates, and uses thereof” (SANOFI, priority 2012, dated 2017):

Target: T1, Hybrid LAMP1 / glycan-deleted LAMP1 transmembrane proteins (Mus musculus, UniProt P11438, A146K/E181G/G176S/K100R/K140R/K180R/L93T/N144D/N177S/S175N/T102A/Y92H)
T1 construct: expressed in transfected cells; host or cells: 293-F (HEK293-derived), transient transfection
T1 sequence (P11438 with tags, fused parts or gaps Y92H/L93T/K100R/T102A/K140R/N144D/A146K/S175N/G176S/N177S/K180R/E181G): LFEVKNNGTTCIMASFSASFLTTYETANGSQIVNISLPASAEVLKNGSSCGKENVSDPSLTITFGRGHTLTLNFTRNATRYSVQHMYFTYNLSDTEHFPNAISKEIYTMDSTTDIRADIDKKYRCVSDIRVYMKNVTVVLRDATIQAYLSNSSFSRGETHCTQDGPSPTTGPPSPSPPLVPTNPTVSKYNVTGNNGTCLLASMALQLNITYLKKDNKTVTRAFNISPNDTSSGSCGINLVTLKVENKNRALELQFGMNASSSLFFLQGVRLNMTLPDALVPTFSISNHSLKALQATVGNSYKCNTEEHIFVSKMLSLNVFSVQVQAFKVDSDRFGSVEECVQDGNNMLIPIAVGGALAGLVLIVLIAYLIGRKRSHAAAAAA
Test: Binding onto membrane-anchored hybrid or mutated LAMP1 proteins (293-F cells) by flow cytometry
Design: species or system human/mouse
Conditions: pXL6092 mLAMP1_hseq6-9-11_ΔGYQTI; Table 17 Experiment no2
Description: Different LAMP1 proteins were expressed at the cell membrane of HEK293 cells after transient expression from mammalian plasmids encoding the entire coding sequence of LAMP1 deleted of the intracellular lysosome-targeting motif GYQTI and substituted by a 5-Ala repeat sequence.
Two days post transfection cells were processed, analyzed by flow cytometry (Guava® easyCyte™ 8HT) as mentioned in example 4.7, and the mean fluorescence was recorded. This fluorescence represents a semi-quantitative assessment of binding.

Binding call: Full binding
Mean fluorescence: 499
B1: MAb1: murine monoclonal anti-LAMP1 antibody, VH SEQ ID NO: 1, VL SEQ ID NO: 5 (antibody, V domains shown)
VH: QVQLQQSGAELVKPGASVKMSCKASGYIFTNYNIHWVKKSPGQGLEWIGAIYPGNGDAPYSQKFKDKATLTADKSSSTTYMQLSRLTSEDSAVYYCVRANWDVAFAYWGQGTLVSVSA
VL: DIQMTQSPPSLSASLGGKVTITCKASQDIDRYMAWYQDKPGKGPRLLIHDTSTLQPGIPSRFSGSGSGRDYSFSISNLEPEDIATYYCLQYDNLWTFGGGTKLEIK
modifications: Antibody Fragment; antibody fragment
